Data on one substance can be found in publication PMC5399476.

The target in the experiment is wild-type core streptavidin. The experiment in a line: SDS-PAGE with fluorescence scanning.

A word on the stoichiometry N: it is the number of molecules, sites or subunits per partner or assembly. For the substance “wild-type core streptavidin (natural protein)”, the stoichiometry N is 4.
